Experimental data as given in US20250333531A1 (NORDIC NANOVECTOR ASA, published 2025).
Positions count from the first letter of the chain named.

Tests used:
[1] = target: T1, human CD37 (human, UniProt P11049 1-281); assay: competitive radioligand binding on Ramos cells; ratio to Ki of NNV009 (assumed 2.3)
T1 construct: whole, on cells; also called CD37 antigen
T1 sequence (looked up): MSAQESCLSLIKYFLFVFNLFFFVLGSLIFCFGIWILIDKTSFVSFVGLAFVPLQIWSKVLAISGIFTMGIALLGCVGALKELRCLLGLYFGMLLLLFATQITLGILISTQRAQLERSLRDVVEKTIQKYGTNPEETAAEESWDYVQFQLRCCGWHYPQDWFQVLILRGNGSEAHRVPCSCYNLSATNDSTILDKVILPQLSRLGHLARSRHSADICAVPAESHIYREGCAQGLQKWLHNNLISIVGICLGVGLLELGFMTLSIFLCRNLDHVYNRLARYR
Protocol: (§1) The Eppendorf LoBind tubes 1.5 mL were used to prepare dilutions (working concentrations) of Abs. As much as 0.2 mL of the cell suspension (800 000 cells/tube), after it has been cooled down for 30 min on ice, was aliquoted to glass 12×75 mm counting tubes. Each tube was pre-labeled with a code specifically determining each sample. The tubes with cells were maintained on ice for whole time course of the experiment except for the time when counted on the gamma counter. The tubes were agitated on a planetary shaker at 350 RPM, 4° C. (on ice) for 15 min. […] The tubes were placed on the planetary shaker (GL 064), on ice, and shaken for 4 hours at 350 RPM. After 3.5 hours past from the beginning of incubation, the samples were assayed on Wizard2 gamma counter using protocol “Lu-177 General” (all detectors except for the detector #3 were used). Upon completion the counting, the cells were washed with ice-cold 0.5 mL 0.5% BSAPBS three times. All the tubes were assayed on the Wizard2 gamma counter again using the same sequence and parameters as before the washing.

[2] = target: T1, human CD37; assay: competitive radioligand binding on Ramos cells against 177Lu-NNV009 (2.7 nM), gamma counting
Protocol: as §1

[3] = target: T2, biotinylated soluble human FcRn (human, UniProt P55899 24-297; P61769 21-119, biotinylated); assay: ELISA: IgG coated at 1000-0.45 ng/ml, biotinylated soluble human FcRn 250 ng/ml pre-complexed with AP-streptavidin, pH 6.0, absorbance 405 nm
T2 construct: extracellular domain; Bought; Beta-2-microglobulin is not mentioned; Used as preformed complex with AP-streptavidin
T2 sequence (P55899 24-297 limits assumed, chain 1 of 2): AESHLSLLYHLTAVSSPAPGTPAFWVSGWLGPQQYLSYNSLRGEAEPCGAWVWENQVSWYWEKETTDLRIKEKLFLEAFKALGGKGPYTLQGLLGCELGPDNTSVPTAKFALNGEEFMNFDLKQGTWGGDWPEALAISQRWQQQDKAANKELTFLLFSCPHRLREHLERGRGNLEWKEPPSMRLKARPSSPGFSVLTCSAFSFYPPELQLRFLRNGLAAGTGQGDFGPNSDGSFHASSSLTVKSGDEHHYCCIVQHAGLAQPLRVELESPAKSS
T2 sequence (P61769 21-119 limits assumed, chain 2 of 2): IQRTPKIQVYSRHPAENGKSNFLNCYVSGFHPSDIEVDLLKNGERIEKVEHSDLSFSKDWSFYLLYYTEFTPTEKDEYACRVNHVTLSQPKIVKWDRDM
Protocol: (§2) Remaining surface area were blocked with PBS containing 0.05% T and 4% S for 1 h at RT. The plates were washed four times with PBS/T using a Hydrospeed™ plate washer (Tecan). […] Following washing as above with PBS/T or FcRn binding buffer (67 nM phosphate, 0.1 M NaCl, 0.05% T, pH 6.0), bound receptor was visualized by addition of phosphatase substrate (1 mg/ml in diethanolamine buffer) (Sigma Aldrich). The plates were developed for 20-30 min before the 405 nm absorption values were recorded using a TECAN Sunrise spectrophotometer (Tecan).

[4] = target: T3, biotinylated truncated soluble human FcγRI (human, UniProt P12314 16-292, biotinylated); assay: ELISA: IgG coated at 10000-4.5 ng/ml, biotinylated truncated soluble human FcγRI 250 ng/ml pre-complexed with AP-streptavidin, absorbance 405 nm
T3 construct: extracellular domain; Bought; preformed complex with AP-streptavidin
T3 sequence (P12314 16-292): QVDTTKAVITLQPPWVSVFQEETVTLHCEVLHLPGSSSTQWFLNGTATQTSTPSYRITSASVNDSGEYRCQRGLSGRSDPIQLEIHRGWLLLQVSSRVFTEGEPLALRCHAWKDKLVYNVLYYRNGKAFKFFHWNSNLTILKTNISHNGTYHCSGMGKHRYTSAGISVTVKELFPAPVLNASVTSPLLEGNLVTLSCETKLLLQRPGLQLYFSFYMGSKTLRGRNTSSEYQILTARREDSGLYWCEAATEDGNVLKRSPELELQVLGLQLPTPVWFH
Protocol: as §2, with “96 well EIA/RIA plates (CorningCostar) were coated with 100 μl titrated amounts of IgG variants (10.000-4.5 ng/ml) diluted in PBS and incubated O/N at 4° C. Remaining” for “Remaining”, “above,” for “above with PBS/T or FcRn binding buffer (67 nM phosphate, 0.1 M NaCl, 0.05% T, pH 6.0),”, “15-20” for “20-30”

[5] = target: T4, biotinylated truncated soluble human FcγRIIb (human, UniProt P31994 43-217, biotinylated); assay: ELISA: IgG coated at 10000-4.5 ng/ml, biotinylated truncated soluble human FcγRIIb 250 ng/ml pre-complexed with AP-streptavidin, absorbance 405 nm
T4 construct: extracellular domain; Bought
T4 sequence (looked up): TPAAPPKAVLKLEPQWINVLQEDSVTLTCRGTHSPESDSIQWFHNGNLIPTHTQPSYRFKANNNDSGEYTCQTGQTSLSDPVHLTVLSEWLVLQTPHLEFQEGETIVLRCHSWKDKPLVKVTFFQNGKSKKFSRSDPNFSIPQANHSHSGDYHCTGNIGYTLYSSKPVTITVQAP
Protocol: as §2, with “96 well EIA/RIA plates (CorningCostar) were coated with 100 μl titrated amounts of IgG variants (10.000-4.5 ng/ml) diluted in PBS and incubated O/N at 4° C. Remaining” for “Remaining”, “above,” for “above with PBS/T or FcRn binding buffer (67 nM phosphate, 0.1 M NaCl, 0.05% T, pH 6.0),”, “15-20” for “20-30”

[6] = target: T5, human complement factor C1q (human, UniProt P02745 23-245; P02746 28-253; P02747 29-245); assay: ELISA: IgG coated at 20000-156.25 ng/ml, human C1q 360 ng/ml, detected with rabbit anti-human C1q and HRP anti-rabbit IgG (y axis printed as Absorbance 405 nm)
T5 construct: Bought
T5 sequence (P02745 23-245 limits assumed, chain 1 of 3): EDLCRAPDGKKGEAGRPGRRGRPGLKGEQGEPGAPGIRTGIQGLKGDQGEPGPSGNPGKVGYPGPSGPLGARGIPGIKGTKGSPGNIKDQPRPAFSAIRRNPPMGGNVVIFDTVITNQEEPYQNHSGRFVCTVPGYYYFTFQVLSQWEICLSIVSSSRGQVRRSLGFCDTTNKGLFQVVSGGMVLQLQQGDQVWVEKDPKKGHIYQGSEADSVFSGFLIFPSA
T5 sequence (P02746 28-253 limits assumed, chain 2 of 3): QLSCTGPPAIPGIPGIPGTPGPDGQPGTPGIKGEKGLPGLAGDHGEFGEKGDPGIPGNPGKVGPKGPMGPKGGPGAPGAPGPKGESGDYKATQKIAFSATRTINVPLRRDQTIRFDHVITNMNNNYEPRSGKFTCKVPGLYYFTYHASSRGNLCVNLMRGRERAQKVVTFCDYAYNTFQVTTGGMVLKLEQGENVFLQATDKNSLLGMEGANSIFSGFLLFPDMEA
T5 sequence (P02747 29-245 limits assumed, chain 3 of 3): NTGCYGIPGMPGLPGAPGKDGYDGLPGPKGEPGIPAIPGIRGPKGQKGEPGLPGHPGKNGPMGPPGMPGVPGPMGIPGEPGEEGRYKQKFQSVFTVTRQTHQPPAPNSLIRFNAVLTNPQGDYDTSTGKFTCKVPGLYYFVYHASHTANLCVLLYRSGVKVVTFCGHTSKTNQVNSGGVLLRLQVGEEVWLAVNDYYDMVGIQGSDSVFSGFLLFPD
Protocol: (§3) Remaining surface area were blocked with PBS containing 0.05% T and 4% S for 1 h at RT. The plates were then washed four times with PBS/T using a Hydrospeed™ plate washer (Tecan). Human C1q (Complement Technologies) diluted to 360 ng/ml in veronal buffer (Complement Technologies) were added and incubated for 30 min at 37° C. Detection of bound C1q was performed using a primary anti-human C1q antibody from rabbit (DAKO) diluted 1:10.000 in PBS/T/S and a secondary horseradish peroxidase (HRP) conjugated anti-rabbit IgG antibody diluted 1:5000 in PBS/T/S (GE Healthcare). Binding was visualized by addition of 100 μl TMB substrate (Calbiochem) for 15-20 min before the enzymatic reaction was stopped by addition of 50 μl 1 M HC1. The 450 nm absorption values were recorded using a Sunrise TECAN spectrophotometer (Tecan).

[7] = target: T5, human complement factor C1q; assay: repeat ELISA: IgG coated at 20000-156.25 ng/ml, human C1q 360 ng/ml, detected with rabbit anti-human C1q and HRP anti-rabbit IgG (y axis printed as Absorbance 405 nm)
Protocol: as §3

[8] = target: T6, biotinylated truncated soluble human FcγRIIa-H131 (human, UniProt P12318 34-217, biotinylated); assay: ELISA: IgG coated at 10000-4.5 ng/ml, biotinylated truncated soluble human FcγRIIa-H131 250 ng/ml pre-complexed with AP-streptavidin, absorbance 405 nm
T6 construct: extracellular domain; Bought
T6 sequence (looked up): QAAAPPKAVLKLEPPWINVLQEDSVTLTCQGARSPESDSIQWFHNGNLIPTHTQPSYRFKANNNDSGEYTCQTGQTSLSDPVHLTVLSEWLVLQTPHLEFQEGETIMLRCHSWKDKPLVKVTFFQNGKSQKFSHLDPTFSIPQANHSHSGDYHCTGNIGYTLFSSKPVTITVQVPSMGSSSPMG
Protocol: as §2, with “96 well EIA/RIA plates (CorningCostar) were coated with 100 μl titrated amounts of IgG variants (10.000-4.5 ng/ml) diluted in PBS and incubated O/N at 4° C. Remaining” for “Remaining”, “above,” for “above with PBS/T or FcRn binding buffer (67 nM phosphate, 0.1 M NaCl, 0.05% T, pH 6.0),”, “15-20” for “20-30”

[9] = target: T7, biotinylated truncated soluble human FcγRIIa-R131 (human, UniProt P12318 34-217, biotinylated); assay: ELISA: IgG coated at 10000-4.5 ng/ml, biotinylated truncated soluble human FcγRIIa-R131 250 ng/ml pre-complexed with AP-streptavidin, absorbance 405 nm
T7 construct: extracellular domain; Bought
T7 sequence (looked up): T6 sequence (looked up) with H134R
Protocol: as §2, with “96 well EIA/RIA plates (CorningCostar) were coated with 100 μl titrated amounts of IgG variants (10.000-4.5 ng/ml) diluted in PBS and incubated O/N at 4° C. Remaining” for “Remaining”, “above,” for “above with PBS/T or FcRn binding buffer (67 nM phosphate, 0.1 M NaCl, 0.05% T, pH 6.0),”, “15-20” for “20-30”

[10] = target: T8, biotinylated truncated soluble human FcγRIIIa-F158 (human, UniProt P08637 17-208, biotinylated); assay: ELISA: IgG coated at 10000-4.5 ng/ml, biotinylated truncated soluble human FcγRIIIa-F158 250 ng/ml pre-complexed with AP-streptavidin, absorbance 405 nm
T8 construct: extracellular domain; Bought
T8 sequence (P08637 17-208): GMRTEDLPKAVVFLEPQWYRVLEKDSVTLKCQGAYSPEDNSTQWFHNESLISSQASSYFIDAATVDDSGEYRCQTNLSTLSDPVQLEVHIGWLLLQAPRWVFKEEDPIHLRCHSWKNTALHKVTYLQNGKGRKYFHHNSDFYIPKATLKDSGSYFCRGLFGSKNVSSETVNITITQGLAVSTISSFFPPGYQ
Protocol: as §2, with “96 well EIA/RIA plates (CorningCostar) were coated with 100 μl titrated amounts of IgG variants (10.000-4.5 ng/ml) diluted in PBS and incubated O/N at 4° C. Remaining” for “Remaining”, “above,” for “above with PBS/T or FcRn binding buffer (67 nM phosphate, 0.1 M NaCl, 0.05% T, pH 6.0),”, “15-20” for “20-30”

B1: NNV025 (antibody, human IgG1, kappa)
heavy: not shown
light: DIQMTQSPSSLSASVGDRVTITCKASQDVSTAVDWYQQKPGKSPKLLINWASTRHTGVPSRFSGSGSGTDYTLTISSLQPEDFATYYCRQHYSTPFTFGQGTKLEIKRTVAAPSVFIFPPSDEQLKSGTASVVCLLNNFYPREAKVQWKVDNALQSGNSQESVTEQDSKDSTYSLSSTLTLSKADYEKHKVYACEVTHQGLSSPVTKSFNRGEC
notes: Humanized IgG1 kappa; also called AH02871HC + AH02877LC; AH2871HC_2877LC
Ki(NNV009)/Ki(NNV020 var.) [1]: 4.31 fold | EC50 [2]: 1160 pM | Ki [2]: 533 pM

B2: AH02871 (antibody, human IgG1, kappa, V domains shown)
VH: QVQLVQSGAEVVKPGASVKVSCKASGYSFTDYNMYWVKQAPGQRLEWMGYIDPYNGDTTYNQKFKGRVTITRDTSASTAYMELSSLRSEDTAVYYCARSPYGHYAMDYWGQGTLVTVSS
VL: DIQMTQSPSSLSASVGDRVTITCKASQDVSTAVDWYQQKPGKAPKLLINWASTRHTGVPSRFSGSGSGTDYTLTISSMQPEDFATYYCRQHYSTPFTFGQGTKLEIKR
notes: Humanized IgG1 kappa; also called NNV026; NNV020 #1
Ki(NNV009)/Ki(NNV020 var.) [1]: 4.27 fold | EC50 [2]: 1170 pM | Ki [2]: 539 pM

B3: AH02886 (antibody, human IgG1, kappa, V domains shown)
VH: B2 VH with V11L, V12K, I70L, R72V
VL: B2 VL with A13T, M78L
notes: Humanized IgG1 kappa; also called NNV027; NNV020 #5
Ki(NNV009)/Ki(NNV020 var.) [1]: 4.3 fold | EC50 [2]: 1160 pM | Ki [2]: 535 pM

B4: NNV003 (antibody, human IgG1, kappa)
heavy: not shown
light: DIVMTQSHKLLSTSVGDRVSITCKASQDVSTAVDWYQQKPGQSPKLLINWASTRHTGVPDRFTGSGSGTDYTLTISSMQAEDLALYYCRQHYSTPFTFGSGTKLEIKRTVAAPSVFIFPPSDEQLKSGTASVVCLLNNFYPREAKVQWKVDNALQSGNSQESVTEQDSKDSTYSLSSTLTLSKADYEKHKVYACEVTHQGLSSPVTKSFNRGEC
notes: Mouse/human IgG1 kappa chimera of lilotomab; also called chHH1; chimeric HH1
EC50 (read off the curve) [3]: ~0.04 µg/mL | EC50 (read off the curve) [4]: ~0.4 µg/mL | EC50 (read off the curve) [5]: ~0.7 µg/mL | EC50 (read off the curve) [6]: ~3 µg/mL | EC50 (read off the curve) [7]: ~1 µg/mL | EC50 (read off the curve) [8]: ~0.3 µg/mL | EC50 (read off the curve) [9]: ~0.8 µg/mL | EC50 (read off the curve) [10]: ~0.5 µg/mL

B5: TCMC-NNV003 (antibody, human IgG1, kappa)
heavy: not shown
light: B4 light
modifications: TCMC chelator conjugate; sites not stated; TCMC chelator conjugate (GGG-TCMC); sites not stated
notes: chains are those of NNV003; also called NNV003-TCMC; NNV003-GGG-TCMC
EC50 (read off the curve) [3]: ~0.06 µg/mL | EC50 (read off the curve) [4]: ~0.4 µg/mL
